# Experimental data: PMC12416549 (2024)
# T1: TNFR1 (Homo sapiens, UniProt P19438)
# T1 chain: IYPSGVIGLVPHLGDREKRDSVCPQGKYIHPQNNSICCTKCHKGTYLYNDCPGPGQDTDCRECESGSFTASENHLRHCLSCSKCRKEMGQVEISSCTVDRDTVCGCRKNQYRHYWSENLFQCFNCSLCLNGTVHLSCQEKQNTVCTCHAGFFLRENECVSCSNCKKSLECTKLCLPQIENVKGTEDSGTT
# Target: T1, TNFR1
# Test: yeast display SC50
row,Binder,apparent Kd (screen)
1,T57F (designed binder) SMEEEVEKAAKEYEKKKKEAIEKHLEKLKAKDKEAAERFLKELEEAAKEYAKDEAKFMSEEEAKRRAKKYKEKVLLSELSEEEQKEIKEAEEKLVRTILKYVEEAAK,0.0729 nM
2,E14I (designed binder) SMEEEVEKAAKEYIKKKKEAIEKHLEKLKAKDKEAAERFLKELEEAAKEYAKDEAKTMSEEEAKRRAKKYKEKVLLSELSEEEQKEIKEAEEKLVRTILKYVEEAAK,5.84 nM
3,K23D (designed binder) SMEEEVEKAAKEYEKKKKEAIEDHLEKLKAKDKEAAERFLKELEEAAKEYAKDEAKTMSEEEAKRRAKKYKEKVLLSELSEEEQKEIKEAEEKLVRTILKYVEEAAK,0.49 nM
4,D53A (designed binder) SMEEEVEKAAKEYEKKKKEAIEKHLEKLKAKDKEAAERFLKELEEAAKEYAKAEAKTMSEEEAKRRAKKYKEKVLLSELSEEEQKEIKEAEEKLVRTILKYVEEAAK,1.27 nM
5,R65V (designed binder) SMEEEVEKAAKEYEKKKKEAIEKHLEKLKAKDKEAAERFLKELEEAAKEYAKDEAKTMSEEEAKVRAKKYKEKVLLSELSEEEQKEIKEAEEKLVRTILKYVEEAAK,1.4 nM
6,A67S (designed binder) SMEEEVEKAAKEYEKKKKEAIEKHLEKLKAKDKEAAERFLKELEEAAKEYAKDEAKTMSEEEAKRRSKKYKEKVLLSELSEEEQKEIKEAEEKLVRTILKYVEEAAK,1.54 nM

# The next lines start with the values.
row,apparent Kd (screen),Binder
1,22.2 nM,E3W (designed binder) SMWEEVEKAAKEYEKKKKEAIEKHLEKLKAKDKEAAERFLKELEEAAKEYAKDEAKTMSEEEAKRRAKKYKEKVLLSELSEEEQKEIKEAEEKLVRTILKYVEEAAK
2,0.277 nM,A30E (designed binder) SMEEEVEKAAKEYEKKKKEAIEKHLEKLKEKDKEAAERFLKELEEAAKEYAKDEAKTMSEEEAKRRAKKYKEKVLLSELSEEEQKEIKEAEEKLVRTILKYVEEAAK
3,0.539 nM,K16D (designed binder) SMEEEVEKAAKEYEKDKKEAIEKHLEKLKAKDKEAAERFLKELEEAAKEYAKDEAKTMSEEEAKRRAKKYKEKVLLSELSEEEQKEIKEAEEKLVRTILKYVEEAAK
4,1.54 nM,K29I (designed binder) SMEEEVEKAAKEYEKKKKEAIEKHLEKLIAKDKEAAERFLKELEEAAKEYAKDEAKTMSEEEAKRRAKKYKEKVLLSELSEEEQKEIKEAEEKLVRTILKYVEEAAK
5,0.446 nM,E44C (designed binder) SMEEEVEKAAKEYEKKKKEAIEKHLEKLKAKDKEAAERFLKELCEAAKEYAKDEAKTMSEEEAKRRAKKYKEKVLLSELSEEEQKEIKEAEEKLVRTILKYVEEAAK
6,3 nM,K68C (designed binder) SMEEEVEKAAKEYEKKKKEAIEKHLEKLKAKDKEAAERFLKELEEAAKEYAKDEAKTMSEEEAKRRACKYKEKVLLSELSEEEQKEIKEAEEKLVRTILKYVEEAAK
7,0.49 nM,E60I (designed binder) SMEEEVEKAAKEYEKKKKEAIEKHLEKLKAKDKEAAERFLKELEEAAKEYAKDEAKTMSIEEAKRRAKKYKEKVLLSELSEEEQKEIKEAEEKLVRTILKYVEEAAK
8,0.956 nM,K15Q (designed binder) SMEEEVEKAAKEYEQKKKEAIEKHLEKLKAKDKEAAERFLKELEEAAKEYAKDEAKTMSEEEAKRRAKKYKEKVLLSELSEEEQKEIKEAEEKLVRTILKYVEEAAK
